Assay results reported in patent publication US12168686.

Experiments:
[1] = biological target: soluble DR5-Fc fusion protein (UniProt O14763); test: BLI (ForteBio Octet), ratio of kon against TRAIL-Trimer
[2] = biological target: soluble DR5-Fc fusion protein (UniProt O14763); test: BLI (ForteBio Octet), biotin-labeled DR5-Fc on streptavidin sensors
[3] = biological target: soluble DR5-Fc fusion protein (UniProt O14763); test: BLI (ForteBio Octet), ratio of koff against TRAIL-Trimer
[4] = biological target: soluble DR5-Fc fusion protein (UniProt O14763); test: BLI (ForteBio Octet), biotin-labeled DR5-Fc on streptavidin sensors, analyte 15.4 nM-123.5 nM

soluble DR5-Fc fusion protein, sequence (O14763 56-182 limits assumed): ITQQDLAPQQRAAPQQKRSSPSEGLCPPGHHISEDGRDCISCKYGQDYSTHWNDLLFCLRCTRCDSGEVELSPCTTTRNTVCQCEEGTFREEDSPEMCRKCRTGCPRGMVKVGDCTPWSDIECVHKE
native TRAIL (recombinant soluble human TRAIL from E. coli), sequence (P50591 114-281 limits assumed): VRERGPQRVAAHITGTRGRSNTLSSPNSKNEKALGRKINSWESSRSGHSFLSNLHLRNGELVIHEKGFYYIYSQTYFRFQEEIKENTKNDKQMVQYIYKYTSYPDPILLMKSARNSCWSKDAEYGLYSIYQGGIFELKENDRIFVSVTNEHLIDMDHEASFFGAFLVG

Question: What does the source list for “native TRAIL (recombinant soluble human TRAIL from E. coli) (from UniProt P50591 114-281) (ligand)”?
Answer: fold faster association than TRAIL-Trimer [1]: 2 fold; koff [2]: 4.6e-05 s⁻¹; kon [2]: 175000 M⁻¹ s⁻¹; fold faster dissociation than TRAIL-Trimer [3]: > 460 fold; Kd [4]: 0.263 nM
